From publication PMC9751095 (2022) come the findings set out here.

This assay concerns the target T1, Myc-TRAP1 (human, UniProt Q12931 60-704).
T1 chain: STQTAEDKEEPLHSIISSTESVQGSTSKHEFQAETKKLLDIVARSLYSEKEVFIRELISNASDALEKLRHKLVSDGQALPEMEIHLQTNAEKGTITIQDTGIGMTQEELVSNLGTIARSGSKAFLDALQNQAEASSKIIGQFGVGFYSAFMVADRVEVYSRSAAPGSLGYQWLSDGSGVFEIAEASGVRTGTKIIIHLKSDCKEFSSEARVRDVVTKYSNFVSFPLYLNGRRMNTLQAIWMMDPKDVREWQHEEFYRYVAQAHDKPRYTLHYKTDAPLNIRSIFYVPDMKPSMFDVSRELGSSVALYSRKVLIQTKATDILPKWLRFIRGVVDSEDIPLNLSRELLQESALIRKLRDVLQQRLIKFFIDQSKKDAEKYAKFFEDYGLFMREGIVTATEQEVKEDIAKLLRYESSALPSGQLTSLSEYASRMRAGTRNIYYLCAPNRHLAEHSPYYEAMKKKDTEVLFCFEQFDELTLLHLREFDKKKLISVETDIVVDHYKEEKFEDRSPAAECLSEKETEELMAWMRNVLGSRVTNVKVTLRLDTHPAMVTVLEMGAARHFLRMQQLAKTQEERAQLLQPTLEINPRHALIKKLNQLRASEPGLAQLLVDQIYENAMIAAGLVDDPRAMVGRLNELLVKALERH
As to the kind of experiment: SPR; printed as "Ka 69.8 µM". (In general: In SPR one partner is held on a chip, and binding of the other changes the refractive index at the surface.)

B1: recombinant mature human OSCP (natural protein)
chain: FAKLVRPPVQVYGIEGRYATALYSAASKQNKLEQVEKELLRVAQILKEPKVAASVLNPYVKRSIKVKSLNDITAKERFSPLTTNLINLLAENGRLSNTQGVVSAFSTMMSVHRGEVPCTVTSASPLEEATLSELKTVLKSFLSQGQVLKLEAKTDPSILGGMIVRIGEKYVDMSVKTKIQKLGRAMREIV
A word on the Kd: it is the free concentration of one partner at which half of the binding sites on the other are occupied at equilibrium, for simple one-to-one binding. Lower therefore signals higher affinity. B1 yielded a Kd of 69.8 µM.
